These results are taken from US20240026407A1, “MODIFICATION OF SAPONINS” (GLAXOSMITHKLINE BIOLOGICALS SA, priority 2020, published 2024).

Some results are limits rather than exact numbers.

Assay type in all cases: biochemical, Quillaja saponaria
A short description of assay [1]: Experiment 5-1: screening of additional glucosidases for deglycosylation with purified QS-18 (0.04 mg/ml) at pH 7.5 and 30 deg C. Conditions: pH 7.5, 30 degrees C, 18 hours, LCMS/MS. The method, then: The 94 additional genes, together with positive control (DNA encoding SEQ ID No. 262) and negative control, were transformed, expressed, lysed and reacted in the same manner as described above for Experiment 4-1, except the reaction was incubated at 30 degrees C. for 18 hours.
Samples were analysed by LCMS/MS according to the procedure in Experiment 4-1.

A short description of assay [2]: Experiment 5-2: screening of additional glucosidases for deglycosylation with QS-18 in crude bark extract (80%) at pH 6 and 35 deg C. The conditions noted are these: CBE 80%, pH 6, 35 deg C, 18 hours; UV HPLC. Summed up:
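Deglycosylation of QS-18 was monitored by UV HPLC after MeCN/AcOH quench with hexanophenone. The reaction ran 18 hours at 35 deg C, shaking, combining clarified pH 6 lysate with crude bark extract neutralised to pH 6 by NaOH.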

A short description of assay [3]: Experiment 5-3: screening of additional glucosidases for deglycosylation with QS-18 in treated bark extract (80%) at pH 6 and 35 deg C. The conditions noted are these: TBE 80% (QS-21 approx. 4 g/L), pH 6, 35 deg C; UV HPLC. The method, then: Experiment 5-1 was repeated, replacing CBE with Treated Bark Extract (TBE) at pH 6. TBE was prepared from CBE by PVPP treatment and concentration, to provide TBE with a QS-21 concentration of approximately 4 g/L. TBE was adjusted to pH 6 by dropwise addition of 2M NaOH with stirring.

B1: 894 (protein, listed as Microbacterium sp.)
chain: MSDSVAQPSVTDLTLEEKASLTSGADFWTTTAIDRAGVPSIMMTDGPHGLRKQADGNDHVGLANSVPATCFPPAVGLSATFDPELAVRVGEALGVESAIENVAVILGPGINIKRSPLCGRNFEYMSEDPIVSGVMGGALVRGIQSRGVGASLKHFAANNQETDRLRVSSDVDPRPLREIYLRGFQIAIEGAQPWTVMCSYNRINGAYASEDPWLLTSVLRDEWGFEGLVVSDWGAVNDRVAGVIAGLDLEMPSSGGATDAQLVAAVRDGSLDEAALDVVARRVLDLVQKAGRRPAIDGHLDIDAHHALAREVAGRAIVLLKNDDRVLPLAAEQKVAVIGAFAETPRFQGAGSSLINPTRLDSALDGFAEYAAEGAVTYAAGFALDGSGDADVLRAEAVAAASASEVAVVFLGIPASAESEGFDREHIDLPADQLALLDAVLVANPRTVVVLSNGGVVALPFADRVPAIIEGWLLGQAGGSATADVLYGAVNPSGRLAETIPVRLEDNPSYGNFPGEHGHVRYGEGLFVGYRWYDERGLDVTFPFGHGLSYTTFAYGDAQASVRSDGDMAVRIAVTNTGERAGRELVQVYTALQGSAVQRAPRELKAFQSVALEAGETREVELIVRRDDLAYWDVRVDRWVVEGGEYEVHVGASSRDIRSVASAEVAGDELVLPASLNSSITELLAHPVLGERMRALVAAAFGPGAESEGALQVLGSFPIGRLAAFPNVPATRDEIERMIAQA
Turning to B1, in assay [1], the “Experiment 5-1 % conv” value is on record as 21.3%. The “Experiment 5-2 % conv” value in assay [2] is reported as below 0.5%. The “Experiment 5-3 % conv” value in assay [3] is on record as below 0.5%.

B2: 849 (protein, listed as Bifidobacterium merycicum)
chain: MSDNTYPSVNDLTLEEEASLTSGGDAWHLQGVEAKGIPGYMITDGPHGLRKSLASNTGETDLNDSVPATCFPPAAGLSSSWNPELIRQVGEAMGEECIQEKVAVILGPGVNIKRNPLGGRCFEYWSEDPYLAGHEAVGIVAGVQSKGVGTSLKHFAANNQETDRLRVSANISQRALREIYFPAFEHIVKTAQPWTIMCSYNRINGVHSAQNRWLLTDVLRDEWGFEGIVMSDWGADHDRVASLNAGLNLEMPPTYTDDQIVYAARDGRIQPEQLDRMAQGMIDLVNKTRAAMSVEDYRFDVDAHNEIARRAAVESMVLLKNDDAILPVSRDAKIAVIGEFARTPRYQGGGSSHITPTKMTGFLDALAERGVPVDFAPGFTLDLEPTDPALEAEAVIAARDADVVLMFLGLPEAAESEGFDRDTLDIPAKQIELLKAVAAENKNVVVILSNGSVVSVAPWANNAKGILESWLLGQAGGAALADVIFGDVSPSGKLAQSVPMDINDDPSMINWPGEEGHVDYGEGVFVGYRYYDTYGKAVDYPFGYGLSYATFEIGGVKAVKTGANTARVSATVTNTSDVDAAETVQVYVAPGKADVARPKHELKAFRKVFLKAHESAEVSFDLDESAFAYWSEKFNDWHVEAGEYGIEVGMSSRDIAGVATVALDGDGKALPLTEWSTFGEWSADPVGSKVVADVREAGERGELPKLPDNDMMRMFLGSMPINSMSTLMGESGKAISSFMLDGYAKLVG
Consider B2, for which the “Experiment 5-1 % conv” value in assay [1] stood at 17.8%. For the same molecule, the “Experiment 5-2 % conv” value in assay [2] is below 0.5%. Also, the “Experiment 5-3 % conv” value in assay [3] is listed as below 0.5%.

B3: 824 (protein, listed as Pestalotiopsis fici)
chain: MMTTDIEAVLKSLTLEEKISLLAGQNFWETVPVPGKVPHIKTSDGPNGARGADFTGGTRAACFPAASNVAATFDLDIANRIGQALAEETQSKGARCLLAPTTCIHRHPLGGRNFESFSEDPLLSGKLASQVIQGVQSKGVAATIKHFAANEQETERMSVDETISERALREIYLRPFEIAVKEAKPWAVMTAYNCVNGEHCDSNAFNFKVLREEWGWKGLVMSDWGGTNSTAEALNAGLDLEMPGPTNRRKIPDVLAAIKEGKTTERAIDDRARAVLEFIDRLKAFEDPTIPPEQAINKPEHQALIREAGAKGCVLLKNDNGVLPLSKDKVKGKKVAVFGLAKTPLAHGGGSASVNAHYKIAPWDALQEAVGDSAELVYSQGAHTQRILLPIGEDKSAGSIVGLDGKPGFTLQVFDNATQAIEETTHGHPSSSISPLGSKATLYKILEFVGDFTPTESGSHYLGCTGLGLTQVYVNDKLVYDQQKASPDAMGFLFGAISEDEFTYPFTAGNAYRIRVRSLPPIDVPGLEILNGRSGVRLGLQLASEHDADLQGEAVALAKDADYALVFTGHDPQWETEGQDQESFNLPRKGTQDALISAVAKVNPNTVVINSTGVAIALPWLEQVSSLVHAGFPGQECGNSIVDVITGAVNPEGRLPMSFPKRLEDAPAYGNFPGEYVNGQLKVEYKEGVFVGYRHYDRIGRDKVNFAFGHGLSYTTFATDSLRVSRKSETEFSASVNVTNTGKTQGGTLVQLYAGNATTSPEHPIKGLVAFKKIRLEPGQTQTVDLAVAARDLGFFDESRGQWVVPAGQYDFSLGESALDIIQTVKVAVEKELTSAP
Regarding B3, the “Experiment 5-1 % conv” value in assay [1] came to 23.5%. The “Experiment 5-2 % conv” value in assay [2] is on record as below 0.5%. In addition, in assay [3], the “Experiment 5-3 % conv” value is given as below 0.5%.

B4: 810 (protein, listed as Cutibacterium avidum)
chain: MTPAEITDLISQLTLEEKASLCSGGDSWHLQTVEKLGIPGPMVTDGPHGLRKVADGSMAGIYDSVPATCFPTAAGLASTWDPELVHDIGVALGEETRAESVSVLLGPGINMKRSPLCGRNFEYFSEDPVLAGTLATELVRGIQSQGVGTSLKHFAANNQETDRLRVNAEIDERTLREIYLPAFEMVVKQADPWTVMCSYNAINGVYSSQNRWLLTELLHEEWGYKGLVISDWGAVVNRVEGLRAGLDLEMPGDAPRNDARIVEAVRSGDLDEEILDTAVARILSLIARASAAMADPGSYDIEAHHQLARRAAAASVVLLKNDGDVLPLIDPDDVVVIGEFARTPRYQGAGSSKVNPTRVDTALDSLRQTWDDVPFAPGFTLTDHPDPQLADEAVSLSRGKTAVLFLGLPAVAESEGYDRTNTDLPTDQIDLLARVRKVASHTIVVLSNGSSVGTAEWDDQADAIVECWLGGQASGSGVIDVLTGKVNPSGHLAETITRKLSDIPAQLNFPGEFQHVTYGEGRYIGYRGLDATEREVAYPFGHGLSYTTFAYCDLDLLVRPVSDETAQDETVLTVSFTVSNTGDRAGATVPQVYLGFPDATVDRCVRELKAFLRVELDPGESRSITIDLTRRDLSYWDILLHSWTVEPGTVRVEVGISSRDLPLTGEVILDAPTVRHPLRRDSTVAEWMDADEEFAAKVRRATEQTGIDLDSDPTTAAFILAMPAYKMLQMAPIMTPEELDKMLGD
With B4, in assay [1], the “Experiment 5-1 % conv” value was found to be 22.7%. The “Experiment 5-2 % conv” value in assay [2] is given as below 0.5%. Moreover, the “Experiment 5-3 % conv” value in assay [3] was below 0.5%.

B5: 823 (protein, listed as Streptomyces fulvissimus)
chain: MAAASSTSNSKALRREAVDTALAALGLDDKTRLLAGQDLWSLPALPAIGLRSLVMSDGPIGVRGVRWTAADPSVALPSPTALAATWDPELARRAGRLLAQEARRKGVHVLLAPTVNLHRTPLGGRHFEAYSEDPYLTGEIGTGYVRGVQDGGVATTVKHFVANDAETDRFTVNNTVAPRPLRELYLAPFERIVRNAHPWGIMAAYNQVNGSTMTEHRYLQNAVLRGEWGFDGFIVSDWLAARTTVGAITGGLDAAMPGPRTVYGETLADAVRAGEVDEKIVDLAVRNILLLAARVGALESAPPAVPAAALPATVDGDALAREIARRSFVLVRNEVHDGADALPLAPGTTVALSGALARDARVLGGGSALVFPDHVVSPLDGLTAALPEGALTYAVGADPSDELAIAEAGFDLTAVCRDASGAVLATVPLPSGQIQWIGADLPDGVTHDTLDTVEITGTFTPRASGEHTFGTRGTGSFALTVDDRPLFDGTQDRAPGTDPLGAFFNEPVERGRLPLTEGAPVRVSLSHRPGPGTGHPLKGVAFSLVHLAPLRDPDELIAEAVEAARSADTAIVVVGTTERVESEGFDRTDLKLPGHQDALVHAVAAVNPRTVVVVNSGSPVELPWRNEVAAVLLSWFPGQEAGHALADVLRGQEEPGGRLPTTWPVALADVPVSATTPTNGELPYTEGVFIGYRAWEKAGTTPAYAFGHGLGYTTWEYEDVSATPDSVTVRVRNTGSRPGSDTVQIYLAPAPAPDAPERPARWLAGFARVTAAPGGSVEVTVPVEARAYQVWDEEAYGWKTVPGTYEVQAARSLADVRATTTVDITA
As to B5, in assay [1], the “Experiment 5-1 % conv” value was found to be 23.1%. Besides, in assay [2], the “Experiment 5-2 % conv” value is on record as below 0.5%. Further, the “Experiment 5-3 % conv” value in assay [3] was below 0.5%.

B6: 803 (protein, listed as Penicillium italicum)
chain: MVQEKDISTADAVLASLTLEEKVSLLAGGSFWSTAAIPGKSIPSVKFSDGPNGARGSEMKGGPTSACFPCAVSLAATWNLDAIKEVGKALAEETKTKGANLLLGPTVCPHRHPLGGRNFESFSEDPFLSGMMASEYIVGLQGQGIGAAIKHFAANEQETFRNILDVTVSMRALREIYLKPFEIAIKQAKPWALMTAYNSVNGSHADCNSTLLQQILREEWKWDGLVLSDWGGTNSLVESLTAGLDLEMPGPPTVRKSELIMQALESNAIPESIINDRARAVLRFVATTTGFGPQKECKEYADDRPSHRELIRQVGREGIVLLKNEDDILPLKHTASAGSLTKIALLGFADEALIHGGGSAAVNAHHRITLAEGLRDAFKDRGLEIECAKGAHTLRKLPLMVDHVKNDEGKPGWSMQFLHPKDPAGVWRHIGEPSYTPTAPGNEGMTVRATTQFCVPASGRHYLSLSGLGPSSLKINGDEVYRQDGNCPDLMAFILTSYADIPVQYDFVAGQTYHIEVLSNPLEAYNGPSFMNGRAGFSVGFMLEAERDADLLAEAVTLASRSDIAIILTGNTAEWEAEGQDQVGFHLPRDGSQDRLVSAVAAANKSTIVVNCTGGPIAMPWIHEVKALLQAWFPGQEAGHSIADILVGDRFPSGRLPVTFPRAIEDTPAYRNFPGGFEEDGRARVRYEEGVFVGYRFYDHTPEQREKVLFPFGYGLSYTSFTLHDISLATLKDHHENHIEVRVSVSNVGKRRGTETIQVYVGRADHSEQHPWKTLVAFAQVSLDAGETREMSLELSRRDLAFYDESTEHWVVEASDYLVHVGTSVFEIASTERLHIPERIDYAL
In the case of B6, the “Experiment 5-1 % conv” value in assay [1] is 13.1%. Further, in assay [2], the “Experiment 5-2 % conv” value is reported as below 0.5%. Also, the “Experiment 5-3 % conv” value in assay [3] was below 0.5%.
